The record followed here is article PMC12260392, “Expanding the diversity of bacterial DNA partitioning: A CTP-independent ParABS system for plasmid partitioning in Streptomyces” (Proceedings of the National Academy of Sciences of the …, 2025).

For series [1], the target named is T1, ParT (Streptomyces coelicolor A3(2) (plasmid SCP2)) (UniProt Q8VWE5).
T1 sequence: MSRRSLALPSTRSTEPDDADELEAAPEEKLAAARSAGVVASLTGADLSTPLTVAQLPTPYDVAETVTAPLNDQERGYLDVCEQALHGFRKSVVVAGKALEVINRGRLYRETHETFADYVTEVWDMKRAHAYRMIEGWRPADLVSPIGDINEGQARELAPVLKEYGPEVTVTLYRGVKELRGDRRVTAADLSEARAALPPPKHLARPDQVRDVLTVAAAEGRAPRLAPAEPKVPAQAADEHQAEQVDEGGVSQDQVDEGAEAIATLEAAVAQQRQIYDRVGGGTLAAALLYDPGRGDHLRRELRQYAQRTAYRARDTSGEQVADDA
The experiment in a line: BLI. The conditions noted are these: BLI: 100 mM Tris-HCl pH 8, 150 mM NaCl, 1 mM MgCl2, 0.005% Tween-20, temperature not given.

Series [2] concerns the target T1, ParT (Streptomyces coelicolor A3(2) (plasmid SCP2)). The experiment in a line: SPR. The conditions noted are these: 4 C; kinetics; DNA fragment assumed as in BLI; BLI: 100 mM Tris-HCl pH 8, 150 mM NaCl, 1 mM MgCl2, 0.005% Tween-20, temperature not given; SPR at 4 C on Biacore 8K. Background: In SPR one partner is held on a chip, and binding of the other changes the refractive index at the surface.

Series [3] deals with ParT (G87P) (Streptomyces coelicolor A3(2) (plasmid SCP2)). The experiment in a line: BLI. The conditions noted are these: BLI: 100 mM Tris-HCl pH 8, 150 mM NaCl, 1 mM MgCl2, 0.005% Tween-20, temperature not given; SPR at 4 C on Biacore 8K.
Series [4] concerns the target ParA-His6, ParA of plasmid SCP2 (Streptomyces coelicolor).
Series [5] concerns the molecule itself. The experiment in a line: not stated; apo-ParT in solution (SI Appendix, Fig. S8A); the method is not told in the main text.
Series [6] addresses T2, ParT (Streptomyces coelicolor A3(2) (plasmid …, UniProt Q8VWE5 1-325)).
T2 sequence: T1 sequence
Nature of the series: BLI; up to 2 uM ParT; BLI: 100 mM Tris-HCl pH 8, 150 mM NaCl, 1 mM MgCl2, 0.005% Tween-20, temperature not given; SPR at 4 C on Biacore 8K. The conditions noted are these: protein: recombinant; tags: C-terminal His6; chain copies: 2; label: 5' biotin on strand 1 (BLI); blunt. A general note: BLI is a label-free optical method that tracks binding on a fibre tip over time.

Series [7] deals with T2, ParT. The experiment in a line: BLI; no NTP; equilibrium analysis; BLI: 100 mM Tris-HCl pH 8, 150 mM NaCl, 1 mM MgCl2, 0.005% Tween-20, temperature not given; SPR at 4 C on Biacore 8K. The conditions noted are these: protein: recombinant; tags: C-terminal His6; chain copies: 2; label: 5' biotin on strand 1 (BLI); blunt.

As usually defined, the Kd is the equilibrium constant for the complex coming apart. 40-bp parS+10 duplex: the Kd in series [1] (no NTP, equilibrium analysis, SPR at 4 C on Biacore 8K) came to 580 nM; in series [2], 730 nM.
Take 180-bp parS DNA cut with BamHI or EcoRI: the binding signal (fraction of closed-loop signal) in series [1] (1 uM ParT, free DNA end by BamHI or EcoRI, SPR at 4 C on Biacore …) came out at 0.2; in series [3] it was 1.

B1: biotinylated ParT (WT), ParB-like protein of plasmid SCP2 (natural protein)
chain: T1 sequence
modifications: biotin (site and way of biotinylation not stated)
In series [4], B1 came in with an ATPase activity of 0.5 µM ParA with ATP, nonspecific DNA and ParT in increasing molar excess (ATP/ParA/hour) of 6.

B2: ParT (WT), purified, unlabelled (natural protein, Streptomyces coelicolor, UniProt Q8VWE5 1-325, looked up)
chain: T1 sequence
notes: ParT (SCP2.04c), ParB-like protein encoded on plasmid SCP2 of Streptomyces coelicolor, UniProt Q8VWE5; the rows with itself tell the dimer; also called apo-ParT; SCP2.04c; source: purified
One may read the stoichiometry N as a count of units in the complex or per binding partner. Take B2: the “stoichiometry N” value in series [5] turned out to be 2.

B3: 40-bp scrambled parS duplex (dsDNA)
DNA 1: ATCGGGCACCTTAGGGCAATCGTAAGTTCGGCGCACGACC
DNA 2: GGTCGTGCGCCGAACTTACGATTGCCCTAAGGTGCCCGAT
As to B3, the binding result with ParT [6] is reported as “no binding”.

B4: 40-bp parS duplex (dsDNA)
DNA 1: GGCCGACCTCGTGTCTCCAATTGGAGACATCAACGAGGGC
DNA 2: GCCCTCGTTGATGTCTCCAATTGGAGACACGAGGTCGGCC
Turning to B4, the Kd with ParT [7] worked out at 680 ± 200 nM.
